Biological target: native human AXL on non-transfected human cell lines (A-431, A-549, HeLa, MDA-MB-231, NCI-H1299) (human) (UniProt P30530)
Experiment: cell-based or functional assay

Sequence of native human AXL on non-transfected human cell lines (A-431, A-549, HeLa, MDA-MB-231, NCI-H1299) (human) (P30530 26-894 limits assumed): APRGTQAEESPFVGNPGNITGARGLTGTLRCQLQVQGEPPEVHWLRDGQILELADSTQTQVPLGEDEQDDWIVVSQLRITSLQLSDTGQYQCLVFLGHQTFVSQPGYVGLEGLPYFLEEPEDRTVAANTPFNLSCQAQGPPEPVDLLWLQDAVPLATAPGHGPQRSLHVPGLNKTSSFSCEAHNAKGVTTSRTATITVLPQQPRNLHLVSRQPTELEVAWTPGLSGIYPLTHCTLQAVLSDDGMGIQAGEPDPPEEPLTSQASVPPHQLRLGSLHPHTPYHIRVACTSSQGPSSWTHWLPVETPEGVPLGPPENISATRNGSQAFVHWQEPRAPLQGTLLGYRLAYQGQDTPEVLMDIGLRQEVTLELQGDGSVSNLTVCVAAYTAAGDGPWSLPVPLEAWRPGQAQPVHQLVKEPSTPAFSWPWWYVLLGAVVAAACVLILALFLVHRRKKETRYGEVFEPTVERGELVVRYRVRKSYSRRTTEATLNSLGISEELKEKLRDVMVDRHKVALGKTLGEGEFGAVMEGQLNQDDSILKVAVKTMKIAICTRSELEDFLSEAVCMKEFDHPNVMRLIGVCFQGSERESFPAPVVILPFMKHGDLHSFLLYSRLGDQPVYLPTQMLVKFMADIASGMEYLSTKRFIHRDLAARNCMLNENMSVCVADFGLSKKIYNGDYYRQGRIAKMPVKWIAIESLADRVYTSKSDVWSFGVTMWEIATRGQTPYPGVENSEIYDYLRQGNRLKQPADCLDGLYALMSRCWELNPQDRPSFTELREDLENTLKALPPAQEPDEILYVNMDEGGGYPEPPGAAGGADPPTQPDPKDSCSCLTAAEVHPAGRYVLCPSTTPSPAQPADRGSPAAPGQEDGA

## isotype control (Example 5) (antibody)
  AKT phosphorylation in H1299 cells without Gas6; APC-A Geometric mean; p-AKT APC + isotype control: 4380
  AKT phosphorylation in H1299 cells without Gas6; Median: APC-A; p-AKT APC + isotype control: 4430
  ERK phosphorylation in H1299 cells without Gas6; APC-A Geometric mean; p-ERK A647 + isotype control: 965
  ERK phosphorylation in H1299 cells without Gas6; Median: APC-A; p-ERK A647 + isotype control: 274
  Gas6 induced AKT phosphorylation in H1299 cells; APC-A Geometric mean; p-AKT APC + isotype control + Gas6: 8380
  Gas6 induced AKT phosphorylation in H1299 cells; Median: APC-A; p-AKT APC + isotype control + Gas6: 9120
  Gas6 induced ERK phosphorylation in H1299 cells; APC-A Geometric mean; p-ERK A647 + isotype control + Gas6: 1320
  Gas6 induced ERK phosphorylation in H1299 cells; Median: APC-A; p-ERK A647 + isotype control + Gas6: 1020
